According to patent publication US20180155415A1 (published 2018):

Tests used:
[1] = biological target: T1, recombinant mouse proNGF (rm-proNGF) (mouse, UniProt P01139 19-241); experiment: SPR (BIAcore 2000), antibody immobilized (3000 RU), rm-proNGF injected, kinetic analysis
T1 construct: Pro-form of NGF
Method: For rm-proNGF binding (panel C), the immobilization of the antibody was of 3000 RU.
(§1) Experiments were performed on CMS5 chips with amine coupling, using a BIAcore 2000 machine. Coupling was performed with a specific kit purchased at BIAcore and the coupling reaction was carried out according to manufacturer's instructions.
(§2) Anti-NGF antibodies were immobilized on chip, while mouse NGF (m-NGF, Alomone) or recombinant mouse proNGF (rm-proNGF) were injected at decreasing concentrations to obtain binding curves.

[2] = biological target: T2, mouse NGF (m-NGF, Alomone) (mouse, UniProt P01139 122-241); experiment: SPR (BIAcore 2000), antibody immobilized by amine coupling, m-NGF injected
T2 construct: mature
T2 sequence (P01139 122-241): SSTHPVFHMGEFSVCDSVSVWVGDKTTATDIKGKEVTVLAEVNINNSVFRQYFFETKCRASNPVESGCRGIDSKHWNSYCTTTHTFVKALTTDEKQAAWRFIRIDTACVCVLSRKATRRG
Method: For m-NGF binding, the immobilization of the antibody was of 3000 resonance units (RU) in the experiment of panel A and of 6000 RU in the experiment of panel B. The injected concentrations of the m-NGF are indicated on top of each curve.
as §1, §2

T1 sequence (P01139 19-241): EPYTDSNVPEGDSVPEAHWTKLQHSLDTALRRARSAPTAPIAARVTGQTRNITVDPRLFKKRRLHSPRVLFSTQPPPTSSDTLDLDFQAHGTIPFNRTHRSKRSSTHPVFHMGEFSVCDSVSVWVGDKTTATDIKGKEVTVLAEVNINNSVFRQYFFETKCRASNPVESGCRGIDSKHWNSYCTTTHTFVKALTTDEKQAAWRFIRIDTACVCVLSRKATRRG

B1: αD11 anti-NGF antibody (antibody, V domains shown)
VH: QVQLKESGPGLVQPSQTLSLTCTVSGFSLTNNNVNWVRQATGRGLEWMGGVWAGGATDYNSALKSRLTITRDTSKSQVFLKMHSLQSEDTATYYCARDGGYSSSTLYAMDAWGQGTTVTVSA
VL: DIQMTQSPASLSASLGETVTIECRASEDIYNALAWYQQKPGKSPQLLIYNTDTLHTGVPSRFSGSGSGTQYSLKINSLQSEDVASYFCQHYFHYPRTFGGGTKLELK
notes: Rat monoclonal antibody purified from hybridoma supernatant and immobilized on the chip; The tie to αD11 is indirect; also called alphaD11; aD11
Ka [1]: 1.2e+09 M⁻¹
Kd [1]: 1.9 nM
Ka [2]: 3.55e+11 M⁻¹
Kd [2]: 0.00281 nM
